The nature of the series: soluble on expression in E. coli; label from the status in PepcDB or PDB records.
Take “GAAEKTVVNISKVDGMPWFNRMGEGVVQAGKEFNLNASQVGPSSTDAPQQVKIIEDLIARKVDAITIVPNDANVLEPVFKKARDAGIVVLTNESPGQPSANWDVEIIDNEKFAAEYVEHMAKRMGGKGGYVIYVGSLTVPQHNLWADLLVKYQKEHYPDMHEVTRRMPVAESVDDSRRTTLDLMKTYPDLKAVVSFGSNGPIGAGRAVKEKRAKNKVAVYGMMIPSQAASLIKSGDITEGITYDPATAGYALAAVASTLLNGKTIEPGFELKELGKAEVDSDKHIIRFHKVLLVNKDNIDSLY”: the “soluble on expression in E. coli” value was “soluble”.
As for “MTVGLGMPQPPAPTLAPRRATRQLMVGNVGVGSDHPVSVQSMCTTKTHDVNSTLQQIAELTAAGCDIVRVACPRQEDADALAEIARHSQIPVVADIHFQPRYIFAAIDAGCAAVRVNPGNIKEFDGRVGEVAKAAGAAGIPIRIGVNAGSLDKRFMEKYGKATPEALVESALWEASLFEEHGFGDIKISVKHNDPVVMVAAYELLAARCDYPLHLGVTEAGPAFQGTIKSAVAFGALLSRGIGDTIRVSLSAPPVEEVKVGNQVLESLNLRPRSLEIVSCPSCGRAQVDVYTLANEVTAGLDGLDVPLRVAVMGCVVNGPGEAREADLGVASGNGKGQIFVRGEVIKTVPEAQIVETLIEEAMRLAAEMGEQDPGATPSGSPIVTVS”, the “soluble on expression in E. coli” value was “soluble”.
The value for “GSSGSSGMKQATRKPTTPGDILLYEYLEPLDLKINELAELLHVHRNSVSALINNNRKLTTEMAFRLAKVFDTTVDFWLNLQAAVDLWEVENNMRTQEELGRIETVAEYLARREERAKKVA” was “soluble”.
Under “MVGFLKHLVPKRFRKKELVIPVVRMQGAIMAGGNQFRPALNLASYAPLLEKAFAVKDAPAVAISLNSPGGSPVQARMIYNRIRQLAEEKDKKVLIFVEDVAASGGYMIALAGDEIIADPTSIVGSIGVVSGGFGFPEMLRKIGVERRVYTAGENKVILDPFQPEKEGDIDYLKSLQVEIHNVFIDMVKMRRGSKLKGDDALFSGLFWTGMRGLDLGLIDGLGDMREVLRRRYGTKVKLQLISGGRSLFGKKVPGVNMALGLNAERLAAGAVSGLAEVAEEKALWSRFGLLEHHHHHH” stands “soluble”; under “MGSDKIHHHHHHMKIGILSQFPELYSTRRLVAACESRGHEAVVINTLNCYMNINSIKPSIHYQGQELTGFDAIIPRIHASVTFYGCAVVRQFEMMGVFAANDSISIARSRDKLRALQLLSRKGIGMPITGFANKPNDIPDLINMVGGAPLVIKLLEGTQGIGVVLAETKTAAESVIEAFLGLKANIMLQEYIKESNGSDIRCFVVGDKVVASMKRQGPEGDFRSNLHLGGCGEKVKITPKERKMAVAAVKAMGLVVAGVDILRSNRGPLILEVNSAPGIEGIEQTTGISVTEPIVEYIEKMVLAQKSNRPVIA”, “not soluble”; under “MGSDKIHHHHHHMGRLKTVKLVLLHTSFNLFYQFFYKVFGPKKGRITLATMRSGQLNDNLAALEQGLKTANVKPVTVFCYHYDRTLAGKVGFLLASIKALYVIARADVFVIDDYFFPLYAIHKHDDNQVVQLWHAIGSLKKFGLSLPNADQSVMKPHTNYDWVLINAKSDQPAYLDAMAINQDHVIATGSPMVDSLLNRQPQQPRLAARRILYSPTYRQGVQGKQQVMGYVNNMIAACQQLTGPWELYISLHPYLKLSAMTLPSNVHIFQDAERVKTLMPTIDLFITDYSSLSLTFSYFERPIILYTPDYDDYMQTSGFYVDYYQYLQAPHFSKAARVVDFINQEVDHMDLSYVHELKQKTFPHQDGHNTERVVQFVEKLAGGEH”, “not soluble”.
Under “MATYRQRGKKKLWDYRIFNEKSELVASGSGFKTKREAMNEAMRIEQQKLLVNSISSDITLYDLWFEWYSLIIKPSNLAETTKNKYFTRGSVIRKLFGNQKVNKIKHSAYQRKLNTYAEKYTKNHVRRLNSDIKKAIQFAKRDGVLLSDFTDGVVIAGRKFVKDADDKYLHSIFDYKKVISYLENNLDYSNSIVYYLLLVLFKTGLRVGEALALTWDDVNFEDLEIKTYRRFSGDKGTFSPPKTKTSIRTIPISQSLALILRDLKDDQQVMLKNLKIVNMNNQIFYDYRYGVSTNSAINKSLKNVLKILNINSKMTATGARHTYGSYLLAKGVDIWVVARLMGHKDITQLLETYGHVLTEVINKEYETVRSLVS” stands “not soluble”; under “MSFDGFFLHHLTNELQEQIEKGRIQKVNQPFDHELVLTIRNNRRNYKLLLSAHPVFGRIQTTEANFQNPQNPNTFTMIMRKYLQGAVIETIQQIENDRILEIVVSNKNEIGDHIKATLVVEIMGKHSNIILIDKNEHKIIESIKHVGFSQNSYRTILPGSTYIAPPKTKAINPFDISDQTLFELLQTNDLSPKNLQQLLQGLGRDTALELSHCLKDNKLNDFRQFFSREYYPSLTEKSFSAVQFSSSHETFQSLGQLLDYYYQEKAEKDRIAQQASDLIHRVQSELEKNIKKLAKQQDELLATENAEEFRQKGELLTTYLSMVPNNQDVVVLDNYYTNQTIEISLDRALTPNQNAQRYFKKYQKLKEAVKHLKGIISDTENTITYLESVETSLNHASMEDINDIREELVETGFIKRRAHDKQHKRKK”, “not soluble”.
“MGSDKIHHHHHHMKHEPLELGLKIEDAILVNEKLKDFVVYKSGKPRIDFKNKEAMKEYNIAILGHVFGLDMDFHEDALIPTPINRYLFIKNIFDEKDDIKDVLEIGTGSGIISILIAKYFECNVTATDTVSDYLKIAKDNISKNNLTSKINLIDSKGKIIFDIPELKNKKFDLIISYPPYYADNSVASKRSFGGAFASEVELIGGGAYGEVFSQKIIEEGMDHLNNGGIVAIMFPEKPFERRKFVEDKILELGLTLEKSEITTGKRIRHIIKAKKE”: the “soluble on expression in E. coli” value is listed as “not soluble”.
Under “MGSDKIHHHHHHMKILITGATGFVGRNLVPYLFSHGFVELAIAVRDPQKAISMFESIPLTYISCERTFRQQIIDFAPEVVIHLATNFNFHSDEKSVRDIVDANILFGSLLLEAVSYTPCKFFINLGTFAEYYYNDGNFLPNTFYAATKTAFRSIIQYYQLKGDFKWINLIGYTIYGKKNDSKKIIDYLIDALNSPIPLNFTKGEQINDFIHINDVSDFFYVLLSNLNLLEDTMYTQLYLGTGKGTSIRELSYIIETVYKQKVNANWGGLSYRPYDIMYAVAPISRNLDLLKWKTKISLEEGIKMLRYE” stands “not soluble”; under “MKLPVVESFFSLQGEGKRIGKPSLFLRLGGCNLSCKGFNCKTLLNDEILTGCDSLYAVHPKFKTSWDYYNEPKPLIERLEDLAPNYKDFDFILTGGEPSLYFNNPILISVLEHFYRQKIPLCVESNGSIFFEFSPILKELHFTLSVKLSFSLEEESKRIHLKALQNILNNAKSAHFKFVLESQNAAQSIIEIQSLLKQLSLKNNEIFLMPLGTNNNELDKNLKTLAPLAIKHGFRLSDRLHIRLWDNQKGF”, “not soluble”; under “MLSKGAVIDKLKSYKPCENCNGPISKTVSISDLNLDKRKRNCVCGNSQLDDVMLDVLNLMSEYNELQNTDLKDVTLRDAGTPLVEIGYPLKYLPVVSNDELIVMKDVSKACATEILKIPEVKGVISNNSKNNSFNRVEDSGEVNALIAGDDFRCDIFVLKSIMDCVVICKNQSKVHIEFPRPFNPKIAKIDRLNLKGKVVVDGFCGSGTLGLAALKKGAKKVIFSDINPHALKDVIYNLKLNFSKEVFDRIEIINSDFLNLDIVGDVCFVDLFPHMDKEPFLNKAKTISKQVVLILEHHHHHH”, “not soluble”.
The value for “MITVNTLQKMKAAGEKIAMLTAYESSFAALMDDAGVDVLLVGDSLGMAVQGRQSTLPVSLRDMCYHTECVARGAKNAMIVSDLPFGAYQQSKEQAFAAAAELMAAGAHMVKLEGGVWMAETTEFLQMRGIPVCAHIGLTPQSVFAFGGYKVQGRGGKAQALLNDAKAHDDAGAAVVLMECVPAELAKKVTESVSCPTIGIGAGVDCDGQVLVMHDMLGIFPGKTAKFVKNFMQGQSSIQAAVRAYVAEVKAKTFPAAEHIFAD” was “not soluble”.
Under “MGSDKIHHHHHHMKIVHTADWHLGKILNGKQLLEDQKYILTQFKQHMEKEQPDLIVIAGDLYDTSYPSKEAIGLLEETIEYLNIELKIPIIMISGNHDGRERLNYGSKWFENNQLYIRTQLENIDDPIELSGVQFFTLPFATVSEVQNYFKDKQIETYQQALNECLEQMSSSIDNNKVNILIGHLTIEGGKTSDSERPLTIGTVESVDMHSFRLFDYVMLGHLHHPFSINNSFIKYSGSILQYSFSEVNQSKGYRVLDIENNQLLNETFVPLKPLRELEVIEGDYEDIIQERIKVKNKNNYFHFKLTNVSHITDPMMKLKQIYPNILALSNVVFDHSENFSHVEIKKQDDQTIIENFYKNMTDQHLSQVQSDKIKHLLSFILDREG” stands “not soluble”; under “MSLNTWNELTVHVNREAEEAVSNLLIETGSQGVAISDSADYLGQEDRFGELYPEVEQSDMIAITAYYPDTLDIEAVKADLADRLANFEGFGLATGSVNLDSQELVEEDWADNWKKYYEPARITHDLTIVPSWTDYEAKAGEKIIKMDPGMAFGTGTHPTTKMSLFALEQVLRGGETVIDVGTGSGVLSIASSLLGAKDIYAYDLDDVAVRVAQENIDMNPGTENIHVAAGDLLKGVQQEVDVIVANILADILIHLTDDAYRLVKDEGYLIMSGIISEKWDMVRESAEKAGFFLETHMVQGEWNACVFKKTDDISGVIGGEGHHHHHH”, “soluble”; under “MSTPFGLDLGNNNSVLAVARNRGIDIVVNEVSNRSTPSVVGFGPKNRYLGETGKNKQTSNIKNTVANLKRIIGLDYHHPDFEQESKHFTSKLVELDDKKTGAEVRFAGEKHVFSATQLAAMFIDKVKDTVKQDTKANITDVCIAVPPWYTEEQRYNIADAARIAGLNPVRIVNDVTAAGVSYGIFKTDLPEGEEKPRIVAFVDIGHSSYTCSIMAFKKGQLKVLGTACDKHFGGRDFDLAITEHFADEFKTKYKIDIRENPKAYNRILTAAEKLKKVLSANTNAPFSVESVMNDVDVSSQLSREELEELVKPLLERVTEPVTKALAQAKLSAEEVDFVEIIGGTTRIPTLKQSISEAFGKPLSTTLNQDEAIAKGAAFICAIHS”, “not soluble”.
For “DKMDGAPSRVLHIRKLPGEVTETEVIALGLPFGKVTNILMLKGKNQAFLELATEEAAITMVNYYSAVTPHLRNQPIYIQYSNHKELKT”, the “soluble on expression in E. coli” value is “soluble”.
Regarding “MDTKNLTAVQLMELDSCTRCGECVKWCPTYAASGQKPGLAPRDKILRWRQYMNKSYGLKAKLFGPTEIPQSELEEFKDDVHGCTTCGICATVCESGINTVELWESLRTNLVKKGIGPFGKQGMFPKLEHHHHHH”, the “soluble on expression in E. coli” value is “not soluble”.
“MNEPSACSGPPVKSKSSKNEPFYTLKALLPPYSEIQGNHDLLMSYELGPVEGGFSGSRRVKEKISSFLPHIIGEFHLDATKEASSLRALIEKPPIHKEISNLTSSSMQGFKLSAGPVDERYRHLFERRKEEPNLAYSEKLNLIRVRQQYDAYGFDDDETEKGFPKKHKKKKKDKKRKKEKEELGDAEKRKRAADEPMEF”: the “soluble on expression in E. coli” value is “not soluble”.
Regarding “MAYFMTDVTKENRQDECRFSPNKEATEEDLLRIGVECTKVNFDDEHVQEDLDRLIKKYDMNFHDEVHICRATMPNFDEKLDIFFEEHLHDDAELRVIKHGVGFFDVRTKDEAWIRIPVRRGDFVFLPAGIYHRFTTDPSEDVVALRLFRNNPKWTAFNRKADGDEQRVRQQYLNDISA”, the “soluble on expression in E. coli” value is “soluble”.

The values are drawn from the DeepSol protein solubility set.
